In paper PMC11338831:
“And” between values parts separate entries of the source, which are not always exact repeats. Identical values can stand only once.

Tests used:
[1] = molecular target: SlNRC2-Twin-Strep-HA (Solanum lycopersicum (tomato)); assay: native gel or EMSA; Blue Native-PAGE (3-12% Bis-Tris) of SlNRC2-Twin-Strep-HA variants eluted from Strep-Tactin XT resin out of nrc2/3/4 N. benthamiana leaf extract; immunoblot
[2] = molecular target: Solanum lycopersicum (tomato) NRC2, full-length, purified from insect cells (Solanum lycopersicum (tomato)); assay: cryo-EM structure; apparently dimeric SlNRC2 specimen, 0.7 mg ml^-1; dimer at 2.84 Å and tetramer at 3.17 Å from one data set, C2 symmetry
[3] = molecular target: Solanum lycopersicum (tomato) NRC2, full-length, purified from insect cells (Solanum lycopersicum (tomato)); assay: SEC; gel filtration of purified SlNRC2 after removal of MBP; Buffer E (10 mM Tris-HCl pH 8.0, 150 mM NaCl, 1 mM dithiothreitol); Superdex 200 Increase 10/300 GL

| stoichiometry N [1] | stoichiometry N [2] | stoichiometry N [3] | Substance |
| --- | --- | --- | --- |
| 2 and 4 |  |  | SlNRC2-Twin-Strep-HA (natural protein) |
|  | 2 and 4 | 2 | Solanum lycopersicum (tomato) NRC2, full-length, purified from insect cells (natural protein) |
